Assay results published in the RNAGym collection of RNA variant scans (doi:10.7554/elife.90254).

B1: LINE1-mini (parent)
chain: GGCAGAGCUCAACACAGCGUGGCAAAGUGGCUGUGGCUAGACUGCC

Variants of: B1
Assay: self-cleavage, relative activity (ratio to wild type); higher = more cleavage; in vitro, sequencing; the parent is a self-cleaving ribozyme

Compared with G27U, A6C C10G is lower in self-cleavage: 0.83 for the first, 0.05 for the second.

Going from A24U A25G to G5A C31G, the self-cleavage falls from 1.28 to 0.05.

Going from C8A G30U to G17A C18U, the self-cleavage falls from 0.59 to 0.14.

Compared with C37A A41U, C10U A14C is lower in self-cleavage: 0.08 for the first, 0.05 for the second.

Going from A24U A39G to A4C C37U, the self-cleavage rises from 0.14 to 0.16.

First: G7U U38A
Second: C13G A24G
The self-cleavage of the first is lower: 0.04 for the first, 0.22 for the second.

First: G2A U9C
Second: G1C G35A
The self-cleavage of the first is higher: 0.08 for the first, 0.03 for the second.

First: G1C G35C
Second: A12G G27U
The self-cleavage of the first is lower: 0.02 for the first, 0.04 for the second.

Going from C18U G29C to U38C G40A, the self-cleavage falls from 0.86 to 0.07.

Going from G19U A26C to C23A C31A, the self-cleavage falls from 0.61 to 0.26.

Compared with G36C A41C, G7C A24C is higher in self-cleavage: 0.05 for the first, 0.09 for the second.

Compared with A11C G17U, G5C G27A is higher in self-cleavage: 0.03 for the first, 0.05 for the second.

First: G5C G27C
Second: C15U A24G
The self-cleavage of the first is lower: 0.06 for the first, 1.53 for the second.

Going from G2U A24C to C13G G30A, the self-cleavage rises from 0.07 to 0.15.

Going from C10U G21U to C10U G21A, the self-cleavage rises from 0.33 to 0.68.

Compared with G40A A41C, G19C G29C is higher in self-cleavage: 0.13 for the first, 0.54 for the second.

Compared with U38A C42U, C23A U32C is higher in self-cleavage: 0.21 for the first, 0.47 for the second.

Compared with G2C G36U, A4G A39U is higher in self-cleavage: 0.1 for the first, 0.33 for the second.

Going from U28A C45U to U9A C10G, the self-cleavage falls from 1.28 to 0.04.

First: G19A G21A
Second: U32A G44A
The self-cleavage of the first is higher: 2.83 for the first, 0.23 for the second.

Compared with C8G A14C, A25U A41C is lower in self-cleavage: 0.11 for the first, 0.07 for the second.

First: G17C G30U
Second: U9A G27C
The self-cleavage of the first is lower: 0.05 for the first, 0.11 for the second.

Compared with A39C U43C, U20A U34C is higher in self-cleavage: 0.08 for the first, 0.27 for the second.

Going from A12U G36A to A4G C45G, the self-cleavage rises from 0.04 to 0.37.

Going from U9A U20C to C42G C46G, the self-cleavage falls from 0.12 to 0.04.

Compared with G5A C15A, A11C C13A is lower in self-cleavage: 0.1 for the first, 0.03 for the second.

Going from G5U C23G to G2A A4C, the self-cleavage rises from 0.12 to 0.67.

Compared with U9A C42A, C3G G22U is higher in self-cleavage: 0.06 for the first, 0.38 for the second.

Compared with C23A G36A, G17U C46A is lower in self-cleavage: 0.17 for the first, 0.13 for the second.

Compared with G1A A16U, C31G U38G is lower in self-cleavage: 0.1 for the first, 0.03 for the second.

First: G2A G33U
Second: G27U C31G
The self-cleavage of the first is lower: 0.13 for the first, 0.21 for the second.

Compared with G7U C8U, C3A C46A is higher in self-cleavage: 0.34 for the first, 0.4 for the second.

A14G C18A and C8U C46G are the same in self-cleavage: 0.2 for the first, 0.2 for the second.

Compared with U34A U38C, A6U G7C is lower in self-cleavage: 0.2 for the first, 0.19 for the second.

Going from U34C U38G to C23G C45A, the self-cleavage rises from 0.06 to 0.79.

Going from A4C G7C to U38C U43A, the self-cleavage falls from 0.17 to 0.04.

First: G40U U43C
Second: G1C A26G
The self-cleavage of the first is higher: 0.15 for the first, 0.09 for the second.

First: G7A U28A
Second: U20G G21C
The self-cleavage of the first is lower: 0.16 for the first, 0.46 for the second.

First: A26C U28A
Second: U28G
The self-cleavage of the first is lower: 0.53 for the first, 0.64 for the second.

Going from A12U G40C to C13A U43A, the self-cleavage rises from 0.06 to 0.21.

Compared with C18A A25G, U28C G40U is lower in self-cleavage: 0.19 for the first, 0.17 for the second.

Going from G5C G44C to C23A U28G, the self-cleavage rises from 0.04 to 0.44.

Compared with A12C G21A, G5A G30U is higher in self-cleavage: 0.02 for the first, 0.19 for the second.

First: G5U A25G
Second: C18U G27A
The self-cleavage of the first is lower: 0.12 for the first, 0.84 for the second.

First: G17A G19U
Second: U20G U34G
The self-cleavage of the first is higher: 0.25 for the first, 0.14 for the second.

First: C23U C37A
Second: C15A G35U
The self-cleavage of the first is lower: 0.04 for the first, 0.08 for the second.

Compared with C31A C45G, C31A C45U is higher in self-cleavage: 0.06 for the first, 0.13 for the second.

Compared with A12C A24C, A11C C42U is higher in self-cleavage: 0.01 for the first, 0.02 for the second.

First: G30U A39C
Second: G40U C42U
The self-cleavage of the first is higher: 0.19 for the first, 0.07 for the second.

First: A39U C46G
Second: A6G C18A
The self-cleavage of the first is higher: 0.5 for the first, 0.11 for the second.

Compared with C15U U34G, C3U A14U is higher in self-cleavage: 0.07 for the first, 0.19 for the second.

Compared with A4G A14G, G19U U20A is higher in self-cleavage: 0.2 for the first, 0.86 for the second.

Going from A6U C10U to A4C C42A, the self-cleavage rises from 0.12 to 0.13.

Going from C8G C18G to A12U C46A, the self-cleavage rises from 0.08 to 0.27.

Going from C15G C46A to C3U G27C, the self-cleavage rises from 0.11 to 0.2.

Going from G5U A24G to C8U C13U, the self-cleavage rises from 0.19 to 0.81.

Going from C10G U34A to G22A A24G, the self-cleavage rises from 0.03 to 1.53.

First: C13A C42U
Second: C10U C31G
The self-cleavage of the first is higher: 0.09 for the first, 0.05 for the second.

Going from G1A A6C to G22A U32A, the self-cleavage falls from 0.81 to 0.07.

Going from G17A G40A to A24U A41G, the self-cleavage rises from 0.06 to 0.52.

Compared with G1C G44A, A4G C31G is higher in self-cleavage: 0.06 for the first, 0.31 for the second.

First: C3U U38G
Second: A26C C37A
The self-cleavage of the first is lower: 0.04 for the first, 0.05 for the second.

First: G17A G27A
Second: C15G U32A
The self-cleavage of the first is higher: 0.42 for the first, 0.05 for the second.

Going from A4U G5U to G1C C18U, the self-cleavage falls from 0.12 to 0.05.

Compared with G1C C18A, G29U G36U is higher in self-cleavage: 0.04 for the first, 0.05 for the second.

First: C37U C45U
Second: C8U G44U
The self-cleavage of the first is lower: 0.04 for the first, 0.35 for the second.

Compared with G1C A16C, G30U C37G is higher in self-cleavage: 0.01 for the first, 0.05 for the second.

Compared with G5C A11G, G5C G33U is higher in self-cleavage: 0.05 for the first, 0.06 for the second.

First: A6C C8U
Second: G17A A41G
The self-cleavage of the first is higher: 0.51 for the first, 0.07 for the second.

First: A24U G27U
Second: G35A A41U
The self-cleavage of the first is higher: 0.8 for the first, 0.14 for the second.

Compared with A25G U43C, A24G U43G is higher in self-cleavage: 0.1 for the first, 0.19 for the second.

Going from G1U A12G to A12G U38G, the self-cleavage falls from 0.04 to 0.02.

Going from C10A to A16U C42A, the self-cleavage falls from 0.07 to 0.05.

Compared with G30U C46U, C18U C23G is higher in self-cleavage: 1.24 for the first, 1.56 for the second.

Compared with A26G A39U, U32C U34G is lower in self-cleavage: 0.5 for the first, 0.08 for the second.

Compared with U9G A41C, A4C G21A is higher in self-cleavage: 0.04 for the first, 0.42 for the second.

Going from C31A C42A to A6C G36U, the self-cleavage rises from 0.04 to 0.06.

Compared with U9G G21U, G19U A25C is higher in self-cleavage: 0.06 for the first, 0.61 for the second.

First: G2A G5U
Second: A12C A26U
The self-cleavage of the first is higher: 0.27 for the first, 0.03 for the second.

First: G17U A25G
Second: G22U G29C
The self-cleavage of the first is lower: 0.07 for the first, 0.84 for the second.

Compared with G19U U43G, A14C C37G is higher in self-cleavage: 0.02 for the first, 0.11 for the second.

First: A4U G30U
Second: A11C G21C
The self-cleavage of the first is higher: 0.22 for the first, 0.08 for the second.

Going from C23U A26U to U38A A39G, the self-cleavage falls from 0.99 to 0.25.

For C18A U43G, the self-cleavage was 0.26.
